The text below walks through data of patent US20260132214A1 (JECHO LABORATORIES, published 2026).

As a reminder, the Kd is the constant that tells how readily two partners part at equilibrium. In general, koff refers to a measure of how fast the partners let go of each other. A word on the kon: it is the rate constant with which the complex forms. Broadly, the EC50 is the midpoint of the concentration-response curve. Lower therefore signals an effect from little substance.

One test addresses Cy-GPC3 (GP3-C5225) (Cy (so in the source)). The test is described as follows: Octet QKe BLI, antibody on AHC probe, antigen in solution, 1:1 fit. For orientation: Biolayer interferometry detects binding as a change in optical thickness at a sensor tip.
Test [1] concerns the target T1, Glypican 3 Protein, Human, Recombinant (His Tag) (Sino Biological, Cat #10088-H08H) (human, UniProt P51654 25-559).
T1 construct: Bought recombinant protein; also called Hu-GPC3 (10088-H08H); human GPC3; not shown: His tag
The description is as above.

The target in test [2] is T1, Glypican 3 Protein, Human, Recombinant …. Briefly: sandwich-style epitope binning, Octet AHC biosensor, 300 nM human GPC3.
Test [3] shares this target. The test is described as follows: Octet QKe BLI, IgG on AHC probe, GPC3 (Sino Biological) in solution, 1:1 fit.
Test [4] addresses T2, GPC3 expressed on the cell surface of HepG2, Huh7 and Hep3B cells (human, UniProt P51654 25-554).
T2 construct: Endogenous GPC3 of human liver tumour cell lines; also called Glypican 3 protein on the cell surface; endogenously expressed GPC3
Briefly: flow cytometry, Fab titrated on Hep3B cells. In general terms: In flow cytometry, cells or beads pass a laser one at a time.

Test [5] has as its target T3, Fc-tagged human Glypican 3 protein (Acro Biosystems, cat #GP3-H5258) (human, UniProt P51654 25-559).
T3 construct: Bought; also called recombinant human GPC3; not shown: Fc tag
The test is described as follows: ELISA, Fab titrated on coated Fc-tagged human GPC3, anti-Lambda HRP detection. Background: In an ELISA, binding on a coated surface is turned into a signal by an enzyme label.

T1 sequence (P51654 25-559 limits assumed): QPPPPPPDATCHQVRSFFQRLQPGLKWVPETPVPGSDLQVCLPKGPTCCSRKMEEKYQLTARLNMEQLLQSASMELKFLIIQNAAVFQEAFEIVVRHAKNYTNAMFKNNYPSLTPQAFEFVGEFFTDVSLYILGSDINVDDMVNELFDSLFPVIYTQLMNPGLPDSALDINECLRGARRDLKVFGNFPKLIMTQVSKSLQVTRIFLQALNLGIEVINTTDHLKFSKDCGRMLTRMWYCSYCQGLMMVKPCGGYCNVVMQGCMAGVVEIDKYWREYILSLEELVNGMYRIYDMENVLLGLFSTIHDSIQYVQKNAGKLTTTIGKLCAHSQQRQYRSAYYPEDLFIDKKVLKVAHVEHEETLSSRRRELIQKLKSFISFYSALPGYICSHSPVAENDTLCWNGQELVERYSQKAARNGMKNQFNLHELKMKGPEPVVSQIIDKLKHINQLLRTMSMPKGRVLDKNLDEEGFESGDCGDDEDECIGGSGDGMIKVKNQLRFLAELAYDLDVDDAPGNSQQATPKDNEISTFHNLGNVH
T3 sequence (P51654 25-559 limits assumed): as above
T2 sequence (P51654 25-554 limits assumed): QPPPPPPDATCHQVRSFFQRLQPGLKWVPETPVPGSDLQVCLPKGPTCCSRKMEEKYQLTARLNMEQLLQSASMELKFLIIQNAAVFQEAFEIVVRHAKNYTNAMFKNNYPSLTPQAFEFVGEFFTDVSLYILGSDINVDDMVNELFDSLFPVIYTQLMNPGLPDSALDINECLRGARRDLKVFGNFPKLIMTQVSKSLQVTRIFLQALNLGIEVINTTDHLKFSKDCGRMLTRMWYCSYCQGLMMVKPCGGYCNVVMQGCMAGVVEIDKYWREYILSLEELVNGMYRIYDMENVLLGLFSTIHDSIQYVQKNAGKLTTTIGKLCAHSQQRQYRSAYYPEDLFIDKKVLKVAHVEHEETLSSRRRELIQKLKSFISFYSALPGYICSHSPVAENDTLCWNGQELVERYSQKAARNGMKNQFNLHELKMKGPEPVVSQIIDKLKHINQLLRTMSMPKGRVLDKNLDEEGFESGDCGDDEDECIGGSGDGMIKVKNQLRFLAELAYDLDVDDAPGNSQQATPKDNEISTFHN

B1: P3 anti-GPC3 scFv-Fc (Fc fusion)
VH: QVQLQQSGPGLVKPSQTLSITCAISGDSVSSNSAAWNWIRQSPSRGLEWLGRTYYRSKWYNDYAVSVKSRITINPDTSKNQFSLQLNSVTPEDTAVYYCASSYYNGGYFDYWGQGTLVTVSS
VL: EIVLTQSPATLSVSPGGRATLSCRASQSVTTNLAWYQQKPGQAPRLLIYGASTRVTGVPRRFSGSGSGTDFTLTISSLQSEDSAVYYCQQYSGWGGFGGGTKVDIK
notes: scFv-Fc, human IgG1 constant regions
Consider B1, for which the Kd with Cy-GPC3 (GP3-C5225) was 5.45 nM; in test [1], 20.1 nM.

B2: 71 anti-GPC3 scFv-Fc (Fc fusion)
VH: QVQLVESGGGVVQPGRSLRLSCAASGFTFSSYAMHWVRQAPGKGLEWVAVISYDGSNKYYADSVKGRFTISRDNSKNTLYLQMNSLRAEDTAVYYCARGGDGYNAAFDIWGQGTMVTVSS
VL: NFMLTQPPSVSESPGKTVTISCTGSSGSIASNYVQWYQQRPGSAPTTVIYEDNQRPSGVPDRFSGSIDSSSNSASLTISGLKTEDEADYYCQSYDSSKHYVFGTGTKVTVL
notes: as for B1
With B2, in test [2], the binding result is “binds”.

B3: P19 anti-GPC3 scFv-Fc (Fc fusion)
VH: EVQLVESGGGLVKPGGSLRLSCAASGFTFSDYYMSWIRQAPGKGLEWVSYISSSGSTIYYADSVKGRFTISRDNAKNSLYLQMNSLRAEDTAVYYCASVYMDVWGKGTTVTVSS
VL: EIVMTQSPGTLSLSPGERATLSCRASQTVSSSSLAWYQQRPGQAPRLLIYETSSRATGIPDRFSGSGSGTDFTLTISRLEPEDFAIYYCQQKGDSGYTFGQGTKVEIK
notes: as for B1
B3: in test [2], the binding result is given as “binds”.

B4: P20 anti-GPC3 scFv-Fc (Fc fusion)
VH: EVQLVESGGGLVKPGGSLRLSCAASGFTFSDYYMSWIRQAPGKGLEWVSYISSSGSTIYYADSVKGRFTISRDNAKNSLYLQMNSLRAEDTAVYYCASVYMDVWGKGTTVTVSS
VL: SYELTQPPSVSVAPGQTARITCGGNNIGSKSVHWYQQKPGQAPVLVVYDDSDRPSGVPERFSGSNSGNTATLTISRVEAGDEADYYCQVWDNSSDHQVFGGGTKLTVL
notes: scFv-Fc, human IgG1 constant regions; The VH as printed is the same as that of P19
Consider B4, for which, in test [1], the equilibrium dissociation constant (Kd) worked out at 100 nM.

B5: P17 WT IgG (antibody, V domains shown)
VH: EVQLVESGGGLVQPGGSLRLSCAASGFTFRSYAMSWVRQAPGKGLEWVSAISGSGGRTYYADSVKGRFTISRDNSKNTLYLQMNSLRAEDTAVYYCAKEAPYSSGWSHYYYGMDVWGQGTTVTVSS
VL: QSVLTQPPSVSGAPGQRVTISCTGSSSGYDVHWYQQLPGRAPKLLIYGSNNRPSGVPDRFSGSNSGTSASLAITGLQAEDEADYYCQSYDSSLNAIFGGGTKLTVL
notes: IgG
On to B5, for which, in test [3], the Kd came out at 5990 pM, the dissociation rate constant (koff) worked out at 0.000833 s⁻¹ and the association rate constant (kon) is 139000 M⁻¹ s⁻¹.

B6: P17-15D5 Fab (Fab, V domains shown)
VH: EVQLVESGGGLVQPGGSLRLSCAASGFTFANYAMSWVRQAPGKGLEWVSDVSASGVGTYYADSVKGRFTISRDNSKNTLYLQMNSLRAEDTAVYYCAKEVDFKLGWMHYYYGMDVWGQGTTVTVSS
VL: QSVLTQPPSVSGAPGQRVTISCTGSSSGYDVHWYQQLPGRAPKLLIYGSNNRPSGVPDRFSGSNSGTSASLAITGLQAEDEADYYCQSYDSSLNAIFGGGTKLTVL
notes: Fab format
For the molecule B6, the EC50 in test [4] was found to be 9.7 ng/mL; in test [5], 9 ng/mL.

B7: P17 WT Fab (Fab, V domains shown)
VH: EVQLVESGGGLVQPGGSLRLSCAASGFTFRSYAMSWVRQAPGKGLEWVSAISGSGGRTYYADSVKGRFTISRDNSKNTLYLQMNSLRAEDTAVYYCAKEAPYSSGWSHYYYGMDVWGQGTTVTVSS
VL: QSVLTQPPSVSGAPGQRVTISCTGSSSGYDVHWYQQLPGRAPKLLIYGSNNRPSGVPDRFSGSNSGTSASLAITGLQAEDEADYYCQSYDSSLNAIFGGGTKLTVL
notes: Fab format, lambda light chain (detected with an anti-Lambda antibody)
In the case of B7, the EC50 in test [4] is 21.3 ng/mL; in test [5] it was 191 ng/mL.

B8: P17-16E6 IgG (antibody, V domains shown)
VH: EVQLVESGGGLVQPGGSLRLSCAASGFTFRKYAMSWVRQAPGKGLEWVSSLSASGSATYYADSVKGRFTISRDNSKNTLYLQMNSLRAEDTAVYYCAKEADYSMGWMHYYYGMDVWGQGTTVTVSS
VL: QSVLTQPPSVSGAPGQRVTISCTGSSSGYDVHWYQQLPGRAPKLLIYGSNNRPSGVPDRFSGSNSGTSASLAITGLQAEDEADYYCQSYDSSLNAIFGGGTKLTVL
notes: IgG
Consider B8, for which, in test [3], the equilibrium dissociation constant (Kd) turned out to be 1.33 pM, the dissociation rate constant (koff) was 2.76e-07 s⁻¹ and the kon is 208000 M⁻¹ s⁻¹.

B9: P17-13G2 Fab (Fab, V domains shown)
VH: EVQLVESGGGLVQPGGSLRLSCAASGFTFGEYAMSWVRQAPGKGLEWVSGMSGSGDGTYYADSVKGRFTISRDNSKNTLYLQMNSLRAEDTAVYYCAKEMDYQLGWMHYYYGMDVWGQGTTVTVSS
VL: QSVLTQPPSVSGAPGQRVTISCTGSSSGYDVHWYQQLPGRAPKLLIYGSNNRPSGVPDRFSGSNSGTSASLAITGLQAEDEADYYCQSYDSSLNAIFGGGTKLTVL
notes: Fab format
Take B9: the EC50 stood at 13 ng/mL in test [4] and 8.4 ng/mL in test [5].

B10: P17-16A1 IgG (antibody, V domains shown)
VH: EVQLVESGGGLVQPGGSLRLSCAASGFTFKRYAMSWVRQAPGKGLEWVSSVSSSGTGTYYADSVKGRFTISRDNSKNTLYLQMNSLRAEDTAVYYCAKEYDYGLGWMHYYYGMDVWGQGTTVTVSS
VL: QSVLTQPPSVSGAPGQRVTISCTGSSSGYDVHWYQQLPGRAPKLLIYGSNNRPSGVPDRFSGSNSGTSASLAITGLQAEDEADYYCQSYDSSLNAIFGGGTKLTVL
notes: IgG
As to B10, in test [3], the Kd turned out to be 1.17 pM, the koff was 2.51e-07 s⁻¹ and the kon worked out at 215000 M⁻¹ s⁻¹.

B11: P17-11F4 Fab (Fab, V domains shown)
VH: EVQLVESGGGLVQPGGSLRLSCAASGFTFKDYAMSWVRQAPGKGLEWVSALSGSGGATYYADSVKGRFTISRDNSKNTLYLQMNSLRAEDTAVYYCAKEMDFRYGWMHYYYGMDVWGQGTTVTVSS
VL: QSVLTQPPSVSGAPGQRVTISCTGSSSGYDVHWYQQLPGRAPKLLIYGSNNRPSGVPDRFSGSNSGTSASLAITGLQAEDEADYYCQSYDSSLNAIFGGGTKLTVL
notes: Fab format
Regarding B11, the concentration for a half-maximal effect (EC50) in test [4] was 9.9 ng/mL; in test [5], 9.5 ng/mL.

B12: P17-16A1 Fab (Fab, V domains shown)
VH: EVQLVESGGGLVQPGGSLRLSCAASGFTFKRYAMSWVRQAPGKGLEWVSSVSSSGTGTYYADSVKGRFTISRDNSKNTLYLQMNSLRAEDTAVYYCAKEYDYGLGWMHYYYGMDVWGQGTTVTVSS
VL: QSVLTQPPSVSGAPGQRVTISCTGSSSGYDVHWYQQLPGRAPKLLIYGSNNRPSGVPDRFSGSNSGTSASLAITGLQAEDEADYYCQSYDSSLNAIFGGGTKLTVL
notes: Fab format
As to B12, the EC50 in test [4] came out at 7.4 ng/mL; in test [5] it was 9.3 ng/mL.

B13: P17-16A11 Fab (Fab, V domains shown)
VH: EVQLVESGGGLVQPGGSLRLSCAASGFTFDRYAMSWVRQAPGKGLEWVSSLSASGSGTYYADSVKGRFTISRDNSKNTLYLQMNSLRAEDTAVYYCAKEYDFSYGWMHYYYGMDVWGQGTTVTVSS
VL: QSVLTQPPSVSGAPGQRVTISCTGSSSGYDVHWYQQLPGRAPKLLIYGSNNRPSGVPDRFSGSNSGTSASLAITGLQAEDEADYYCQSYDSSLNAIFGGGTKLTVL
notes: Fab format
Consider B13, for which the figures for the half-maximal effective concentration (EC50) in test [4] and in test [5] were 8.3 ng/mL and 8.7 ng/mL, respectively.

B14: P17-8E12 Fab (Fab, V domains shown)
VH: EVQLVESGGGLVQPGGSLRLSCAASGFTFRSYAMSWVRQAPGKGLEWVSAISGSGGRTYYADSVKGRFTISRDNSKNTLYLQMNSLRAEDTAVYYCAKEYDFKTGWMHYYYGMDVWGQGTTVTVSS
VL: QSVLTQPPSVSGAPGQRVTISCTGSSSGYDVHWYQQLPGRAPKLLIYGSNNRPSGVPDRFSGSNSGTSASLAITGLQAEDEADYYCQSYDSSLNAIFGGGTKLTVL
notes: Fab format
In the case of B14, the EC50 in test [4] was 8.3 ng/mL; in test [5] it was 9.6 ng/mL.

B15: P17-13F3 Fab (Fab, V domains shown)
VH: EVQLVESGGGLVQPGGSLRLSCAASGFTFEGYAMSWVRQAPGKGLEWVSNVSGSGDGTYYADSVKGRFTISRDNSKNTLYLQMNSLRAEDTAVYYCAKEYDYKTGWMHYYYGMDVWGQGTTVTVSS
VL: QSVLTQPPSVSGAPGQRVTISCTGSSSGYDVHWYQQLPGRAPKLLIYGSNNRPSGVPDRFSGSNSGTSASLAITGLQAEDEADYYCQSYDSSLNAIFGGGTKLTVL
notes: Fab format
Regarding B15, the EC50 in test [4] is 14.8 ng/mL; in test [5] it was 11.7 ng/mL.

B16: P17-16E6 Fab (Fab, V domains shown)
VH: EVQLVESGGGLVQPGGSLRLSCAASGFTFRKYAMSWVRQAPGKGLEWVSSLSASGSATYYADSVKGRFTISRDNSKNTLYLQMNSLRAEDTAVYYCAKEADYSMGWMHYYYGMDVWGQGTTVTVSS
VL: QSVLTQPPSVSGAPGQRVTISCTGSSSGYDVHWYQQLPGRAPKLLIYGSNNRPSGVPDRFSGSNSGTSASLAITGLQAEDEADYYCQSYDSSLNAIFGGGTKLTVL
notes: Fab format
Consider B16, for which the EC50 in test [4] was 8.5 ng/mL; in test [5] it was 9.6 ng/mL.

B17: P17-16A11 IgG (antibody, V domains shown)
VH: EVQLVESGGGLVQPGGSLRLSCAASGFTFDRYAMSWVRQAPGKGLEWVSSLSASGSGTYYADSVKGRFTISRDNSKNTLYLQMNSLRAEDTAVYYCAKEYDFSYGWMHYYYGMDVWGQGTTVTVSS
VL: QSVLTQPPSVSGAPGQRVTISCTGSSSGYDVHWYQQLPGRAPKLLIYGSNNRPSGVPDRFSGSNSGTSASLAITGLQAEDEADYYCQSYDSSLNAIFGGGTKLTVL
notes: IgG
In the case of B17, in test [3], the Kd stood at 1.03 pM, the koff was 1.87e-07 s⁻¹ and the on-rate (kon) was found to be 182000 M⁻¹ s⁻¹.

B18: P17-15F8 Fab (Fab, V domains shown)
VH: EVQLVESGGGLVQPGGSLRLSCAASGFTFGNYAMSWVRQAPGKGLEWVSGVSGSGDGTYYADSVKGRFTISRDNSKNTLYLQMNSLRAEDTAVYYCAKEYDFGLGWMHYYYGMDVWGQGTTVTVSS
VL: QSVLTQPPSVSGAPGQRVTISCTGSSSGYDVHWYQQLPGRAPKLLIYGSNNRPSGVPDRFSGSNSGTSASLAITGLQAEDEADYYCQSYDSSLNAIFGGGTKLTVL
notes: Fab format
B18: the EC50 was 10.4 ng/mL in test [4] and 8.9 ng/mL in test [5].
